Experimental data from patent publication US12173301B2, “Weed control methods and related compositions and plants” (Syngenta Crop Protection AG, priority 2019, dated 2024).
Where a chain is given by its changes, count along the chain named. Numbers in names are those of the source.

B1: Y217L: Arabidopsis FatA acyl-ACP thioesterase variant, substitution Y217L relative to SEQ ID NO: 1 (protein, listed as Arabidopsis thaliana)
chain: MLKLSCNVTDSKLQRSLLFFSHSYRSDPVNFIRRRIVSCSQTKKTGLVPLRAVVSADQGSVVQGLATLADQLRLGSLTEDGLSYKEKFVVRSYEVGSNKTATVETIANLLQEVGCNHAQSVGFSTDGFATTTTMRKLHLIWVTARMHIEIYKYPAWGDVVEIETWCQSEGRIGTRRDWILKDSVTGEVTGRATSKWVMMNQDTRRLQKVSDDVRDELLVFCPQEPRLAFPEENNRSLKKIPKLEDPAQYSMIGLKPRRADLDMNQHVNNVTYIGWVLESIPQEIVDTHELQVITLDYRRECQQDDVVDSLTTTTSEIGGTNGSATSGTQGHNDSQFLHLLRLSGDGQEINRGTTLWRKKPSS
B2: S168R: Arabidopsis FatA acyl-ACP thioesterase variant, substitution S168R relative to SEQ ID NO: 1 (protein, listed as Arabidopsis thaliana)
chain: B1 chain with S168R, L217Y
B3: L218C: Arabidopsis FatA acyl-ACP thioesterase variant, substitution L218C relative to SEQ ID NO: 1 (protein, listed as Arabidopsis thaliana)
chain: B1 chain with L217Y, L218C
B4: N269W: Arabidopsis FatA acyl-ACP thioesterase variant, substitution N269W relative to SEQ ID NO: 1 (protein, listed as Arabidopsis thaliana)
chain: B1 chain with L217Y, N269W
B5: F123N: Arabidopsis FatA acyl-ACP thioesterase variant, substitution F123N relative to SEQ ID NO: 1 (protein, listed as Arabidopsis thaliana)
chain: B1 chain with F123N, L217Y
B6: C221F: Arabidopsis FatA acyl-ACP thioesterase variant, substitution C221F relative to SEQ ID NO: 1 (protein, listed as Arabidopsis thaliana)
chain: B1 chain with L217Y, C221F
B7: F220H: Arabidopsis FatA acyl-ACP thioesterase variant, substitution F220H relative to SEQ ID NO: 1 (protein, listed as Arabidopsis thaliana)
chain: B1 chain with L217Y, F220H
B8: G114S: Arabidopsis FatA acyl-ACP thioesterase variant, substitution G114S relative to SEQ ID NO: 1 (protein, listed as Arabidopsis thaliana)
chain: B1 chain with G114S, L217Y
B9: F123C: Arabidopsis FatA acyl-ACP thioesterase variant, substitution F123C relative to SEQ ID NO: 1 (protein, listed as Arabidopsis thaliana)
chain: B1 chain with F123C, L217Y
B10: A144Y: Arabidopsis FatA acyl-ACP thioesterase variant, substitution A144Y relative to SEQ ID NO: 1 (protein, listed as Arabidopsis thaliana)
chain: B1 chain with A144Y, L217Y
B11: A118V: Arabidopsis FatA acyl-ACP thioesterase variant, substitution A118V relative to SEQ ID NO: 1 (protein, listed as Arabidopsis thaliana)
chain: B1 chain with A118V, L217Y
B12: N269Y: Arabidopsis FatA acyl-ACP thioesterase variant, substitution N269Y relative to SEQ ID NO: 1 (protein, listed as Arabidopsis thaliana)
chain: B1 chain with L217Y, N269Y
B13: S168C: Arabidopsis FatA acyl-ACP thioesterase variant, substitution S168C relative to SEQ ID NO: 1 (protein, listed as Arabidopsis thaliana)
chain: B1 chain with S168C, L217Y
B14: V121N: Arabidopsis FatA acyl-ACP thioesterase variant, substitution V121N relative to SEQ ID NO: 1 (protein, listed as Arabidopsis thaliana)
chain: B1 chain with V121N, L217Y

Experiment: FatA enzymatic kinetic parameters with oleoyl-CoA as substrate
Type: biochemical
Settings: Michaelis-Menten; for Km: read-out: Km (μM) - best fit
Protocol: For the determination of FatA enzymatic kinetic parameters with oleoyl-CoA as substrate, assays are carried out essentially as described above for the testing of inhibitor compounds but with some changes to the method as follows. Oleoyl CoA is omitted from the assay master mix and added as a separate component to achieve final concentration of 40 μM, 23.5 μM. 13.8 μM, 8.1 μM, 4.8 μM, 2.8 μM and 1.7 μM (i.e. 1.7× dilution scheme). The level of enzymatic activity is determined from the slope of the progress curve (initial linear rates) using assay values measured at 0, 20, 40, 60, 90 and 120 s after addition of the enzyme. Kinetic parameters are then calculated using the Michaelis-Menten model as implemented in GraphPad Prism software.
FatA variant enzymes were prepared from 1 L E coli grows and assays carried out to determine enzyme kinetics as described in Example 1.

| Molecule | kcat (s^−1) - best fit [s⁻¹] | Km [µM] |
| --- | --- | --- |
| B1 | 1.7 | 4.7 |
| B2 | 1.3 | 3 |
| B3 | 1.1 | 0.8 |
| B4 | 0.7 | 1 |
| B5 | 0.3 | 14.6 |
| B6 | 1.5 | 4.3 |
| B7 | 2.0 | 3.2 |
| B8 | 2.3 | 2.8 |
| B9 | 0.3 | 4.8 |
| B10 | 11.5 | 3.9 |
| B11 | 4.5 | 2.4 |
| B12 | 6.1 | 4 |
| B13 | 1.2 | 6.2 |
| B14 | 0.8 | 7.1 |
